Entries after “also recorded” stand apart in the source; their conditions may differ. One block for each molecule: values may come before it.
Assays:
[1] = tested on: endoplasmic reticulum stress signaling in E0771 cells; assay: qRT-PCR of endoplasmic reticulum stress markers in E0771 cells; assay type: cell-based, mouse; conditions: 6 hours
Protocol: (§1) E0771 cells, HCC70 cells, and MDA-MB-468 cells were cultured in RPMI1640 medium containing 10% FCS on a 6-well plate (Corning), and then stimulated with IL-26 (30 ng/ml) in the presence or absence of gefitinib for 3, 6, or 12 hours. The cells were harvested and total RNA was extracted. cDNA was synthesized using PrimeScript II first-strand cDNA synthesis kit (TaKaRa Bio, Japan) and oligo (dT) primers. The mRNA levels were measured by 7500 System SDS software (Applied Biosystems, Foster City, CA) and normalized to hypoxanthine phosphoribosyltransferase expression levels.

[2] = tested on: endoplasmic reticulum stress signaling (DDIT3, ATF3, ATF4) in HCC70 cells; assay: qRT-PCR and immunofluorescence of endoplasmic reticulum stress markers in HCC70 cells; assay type: cell-based, human
Protocol: (§2) E0771 and HCC70 cells (1×10^5) were cultured for 24 hours in RPMI1640 medium with 10% FCS on Lab-Tek chamber slides (Thermo Fisher Scientific). The cultured cells were stimulated with Alexa Fluor 488 labeled IL-26 (30 ng/ml) in the presence or absence of recombinant human and mouse EphA3-Ig for 1 hour. HCC70 cells were stimulated with IL-26 (30 ng/ml) in the presence or absence of gefitinib (40 μM), a signal inhibitor, and a neutralizing antibody for 24 hours. Subcutaneous tumor samples obtained from mice were fixed in 4% paraformaldehyde (Thermo Fisher Scientific) and embedded in OCT compound (Tissue-Tek (registered trademark), Sakura Finetek, Japan). Cells and slides were immunostained with each antibody and observed using a Zeiss inverted microscope and Axiovision 2.0 program (Carl Zeiss, Germany). The fluorescence intensity was quantified with Image-J software (NIH). The images were captured using a 100×400× objective.
as §1

[3] = tested on: endoplasmic reticulum stress signaling in MDA-MB-468 cells; assay: qRT-PCR of endoplasmic reticulum stress markers in MDA-MB-468 cells; assay type: cell-based, human; conditions: 6 hours
Protocol: as §1

MDA-MB468 cells = assay: MTT assay / cell proliferation (confluence) assay, MDA-MB468; assay type: cell-based, human
Protocol: (§3) Human and mouse breast cancer cells (1×10^4) were cultured in 10% FCS containing RPMI1640 medium on a 96-well flat bottom plate (Corning, Tewksbury, MA) at 37° C. for 24 hours, and then stimulated with IL-26 for 48 hours in the presence or absence of EGFR-TKI (gefitinib or erlotinib) at various concentrations, a signal inhibitor, and a neutralizing antibody. HUVECs were seeded in a 96-well flat bottom plate at 5×10^3 cells/well in a 2% FBS-containing EGM medium in which growth factors were reduced by half, and cultured at 37° C. for 12 hours. Thereafter, the medium was aspirated, and a recombinant human IL-26 dimer was adjusted to a final concentration of 10 ng/mL in a 2% FBS-containing EGM medium containing no growth factors, and added to the cells. The stimulation was started in the presence or absence of control human IgG and anti-human IL-26 antibodies, and the cells were cultured for 48 hours. Thereafter, a concentration of 20 μl or 1/10 of a 5 mg/ml MTT solution (Tetrazolium monosodium salt, WST-8) was added to each well, and the plate was allowed to stand for 1 hour. The absorbance at 450 nm/595 nm was measured using Microplate Reader (Bio-Rad, Hercules, CA) and data was analyzed with Microplate Manager 6 software (Bio-Rad).
(§4) Human and mouse breast cancer cells (1×10^4) were cultured in RPMI1640 medium containing 10% FCS for 24 hours at 37° C. on a 96-well flat bottom plate (Corning), and then stimulated with IL-26 (30 ng/ml) in the presence or absence of various concentrations of gefitinib and a neutralizing antibody. Cell proliferation was measured as cell confluence using IncuCyte ZOOM (Essen Bioscience, Ann Arbor, MI).

E0771 cells = assay: MTT assay / cell proliferation (confluence) assay, E0771; assay type: cell-based, mouse
Protocol: as §3, §4

HCC70 cells [4] = assay: MTT assay / cell proliferation (confluence) assay, HCC70; assay type: cell-based, human
Protocol: as §3, §4

T47D cells = assay: MTT assay / cell proliferation (confluence) assay, T47D; assay type: cell-based, human; conditions: 48 hours
Protocol: as §3, with “The stimulation was started in the presence or absence of control human IgG and anti-human IL-26 antibodies, and the cells were cultured for 48 hours. Thereafter, a concentration of 20 μl or 1/10 of a 5 mg/ml MTT solution (Tetrazolium monosodium salt, WST-8) was added to each well, and the plate was allowed to stand for 1 hour.” left out
as §4

HCC70 cells [5] = assay: JC-1 staining (mitochondrial membrane potential) of HCC70 cells; assay type: cell-based, human; conditions: 24 hours, FIG. 31
Protocol: Mitochondrial stability was evaluated using the mitochondrial membrane potential (ΔΨm) assay kit (Cayman Chemical, Ann Arbor, MI, USA) utilizing JC-1 staining. HCC70 cells (1×10^4 cells) were stimulated with IL-26 (30 ng/ml) in the presence or absence of gefitinib (40 μM), a signal inhibitor, and a neutralizing antibody in 96-well flat bottom plate (Corning) for 24 hours. […] Stained cells were quantified using Image-J software (NIH). Images were captured using a 40× objective.

[6] = target: T1, interaction between IL-26 and EphA3 (Homo sapiens, UniProt Q9NPH9); assay: Immunofluorescence of rhIL-26-Alexa488 and cell surface EphA3 on HCC70 cells; assay type: cell-based
T1 construct: purchased R&D Systems; host or cells: IL-26 was purchased; EphA3 is endogenous on HCC70 cells
T1 sequence (Q9NPH9 22-171): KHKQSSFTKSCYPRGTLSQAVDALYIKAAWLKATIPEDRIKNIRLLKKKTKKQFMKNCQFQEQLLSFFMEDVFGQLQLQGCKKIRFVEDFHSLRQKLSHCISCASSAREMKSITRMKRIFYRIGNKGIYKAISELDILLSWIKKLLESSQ
Protocol: as §2

EphA3/IL-26 interaction = target: T2, EphA3/IL-26 interaction (Homo sapiens, UniProt Q9NPH9); assay: Immunofluorescence of rhIL-26-Alexa 488 and cell surface EphA3 on E0771 cells; assay type: cell-based, mouse
T2 construct: purchased R&D Systems; host or cells: IL-26 was purchased; EphA3 is endogenous on E0771 cells
T2 sequence (Q9NPH9 22-171): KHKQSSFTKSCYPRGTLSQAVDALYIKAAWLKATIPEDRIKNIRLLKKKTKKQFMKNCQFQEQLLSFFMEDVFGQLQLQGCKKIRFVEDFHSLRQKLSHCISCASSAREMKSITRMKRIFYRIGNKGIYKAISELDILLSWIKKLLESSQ
Protocol: as §2

[7] = E0771, IL-26 30 ng/ml, gefitinib 20 μM
[8] = MDA-MB-468, IL-26 30 ng/ml, gefitinib 20 μM

Molecule: COc1cc2ncnc(Nc3ccc(F)c(Cl)c3)c2cc1OCCCN1CCOCC1 [gefitinib, Gefitinib, reference compound]
mRNA expression levels of DDIT3, ATF3 and ATF4, gefitinib treatment ([1]; E0771, gefitinib 20 μM, FIG. 29): significantly increased
mRNA expression levels of endoplasmic reticulum stress-related cytokines/chemokines, gefitinib treatment ([1]; E0771, gefitinib 20 μM, FIG. 34): significantly increased
mRNA expression levels of IL-6, IL-8 and CXCL2, gefitinib treatment ([2]; HCC70, gefitinib 40 μM, 6 hours, FIG. 34): significantly increased
expression of DDIT3 at the protein level, gefitinib treatment ([2]; HCC70, gefitinib 40 μM, 24 hours, immunocytochemical staining, FIG. 30): marked increase
mRNA expression levels of DDIT3, ATF3 and ATF4, gefitinib treatment ([2]; HCC70, gefitinib 40 μM, FIG. 28): significantly increased
mRNA expression levels of DDIT3, ATF3 and ATF4, gefitinib treatment ([3]; MDA-MB-468, gefitinib 20 μM, FIG. 29): significantly increased
mRNA expression levels of IL-6, IL-8 and CXCL2, gefitinib treatment ([3]; MDA-MB-468, gefitinib 20 μM, FIG. 34): significantly increased
cell proliferation under gefitinib (MDA-MB468 cells; MDA-MB468, 48 hours, FIGS. 4A, 4B): suppression of cell proliferation
cell proliferation under gefitinib treatment (E0771 cells; E0771, 48 hours, FIGS. 2A to 2C): suppressed
cell proliferation under gefitinib treatment (HCC70 cells [4]; HCC70, 48 hours, FIGS. 3A to 3C): suppressed
cell proliferation under gefitinib (T47D cells; FIGS. 4C, 4D): suppression of cell proliferation
mitochondrial activity, gefitinib treatment (HCC70 cells [5]; HCC70, gefitinib 40 μM): significantly reduced mitochondrial activity

B1: 69-10: mouse anti-human IL-26 monoclonal antibody, clone 69-10, from deposited hybridoma (antibody, V domains shown)
VH: QVTLKESGPGILKPSQTLSLTCSFSGFSLSTSGMGVGWIRQPSGKGLEWLAHIWWDDDKYYNPSLKSQLTISKDTSRNQVFLKITSVDTADTATYYCVRGGITATHYYAMDYWGQGTSVTVSS
VL: DIQMTQSPASQSASLGESVTISCLASQTIGTWLSWYQQKPGKSPQLLIYAATSLADGVPSRFSGSGSGTKFSFKISSLQAEDFVSYYCQQLYSSPWTFGGGTKLEIK
inhibition of the decrease in expression of DDIT3 at the protein level by IL-26 together with gefitinib ([2]; HCC70, 24 hours, antibodies 50 μg/ml, FIG. 32 lower): significantly inhibited
inhibitory effect compared with anti-EphA3 pAb ([2]; HCC70 cells treated with gefitinib and IL-26): stronger than that of anti-EphA315 pAb
reversal of effect of IL-26 on gefitinib-induced DDIT3 expression and mitochondrial membrane depolarization ([2]; HCC70 cells treated with gefitinib and IL-26, FIGS. 32 and 33): reversed the effect of IL-26
inhibition of interaction between IL-26 and EphA3 ([6]; HCC70, rhIL-26-Alexa488 30 ng/ml, 50 μg/ml each, 1 hour, FIG. 21): clearly inhibited the interaction between IL-26 and EphA3
reversal of inhibitory effect of IL-26 on gefitinib-induced suppression of cell proliferation (MTT) (E0771 cells; E0771, IL-26 30 ng/ml, gefitinib 20 μM, antibody 20 μg/ml, 48 hours, FIG. 5D): reversed the inhibitory effect of IL-26 on gefitinib-induced suppression of cell proliferation
reversal of effect of IL-26 on gefitinib-induced suppression of cell proliferation (percent confluence) (E0771 cells; E0771, gefitinib 15 μM and IL-26, antibody 10 μg/ml (mixture 2.5 μg/ml each), FIG. 11): reversed the effect of IL-26 on gefitinib-induced suppression of cell proliferation
reversal of inhibitory effect of IL-26 on gefitinib-induced suppression of cell proliferation (HCC70 cells [4]; HCC70, IL-26 30 ng/ml, gefitinib 40 μM, 48 hours, MTT, FIG. 59): reversed the inhibitory effect of IL-26 on gefitinib-induced suppression of cell proliferation in an antibody dose-dependent manner
inhibition of colocalization of IL-26 with EphA3 (EphA3/IL-26 interaction) (EphA3/IL-26 interaction; E0771, antibodies 10 μg/ml, FIGS. 19 and 20): significantly inhibited

colocalization of exogenous IL-26 with cell surface EphA3 (EphA3/IL-26 interaction; E0771, FIGS. 17 and 18): colocalized with the cell surface EphA3
B2: IL-26: recombinant human IL-26 dimers for cell stimulation, R&D Systems (protein)
chain: KHKQSSFTKSCYPRGTLSQAVDALYIKAAWLKATIPEDRIKNIRLLKKKTKKQFMKNCQFQEQLLSFFMEDVFGQLQLQGCKKIRFVEDFHSLRQKLSHCISCASSAREMKSITRMKRIFYRIGNKGIYKAISELDILLSWIKKLLESSQ
mRNA expression levels of DDIT3, ATF3 and ATF4, IL-26 with gefitinib [1, 7]: significantly decreased
mRNA expression levels of endoplasmic reticulum stress-related cytokines/chemokines, IL-26 with gefitinib [1, 7]: significantly reduced
mRNA expression levels of IL-6, IL-8 and CXCL2, IL-26 with gefitinib ([2]; HCC70, IL-26 30 ng/ml, gefitinib 40 μM, 6 hours, FIG. 34): significantly reduced
expression of DDIT3 at the protein level, IL-26 with gefitinib ([2]; HCC70, IL-26 30 ng/ml, gefitinib 40 μM, 24 hours, FIG. 30): significant decrease
mRNA expression levels of DDIT3, ATF3 and ATF4, IL-26 with gefitinib ([2]; HCC70, IL-26 30 ng/ml, gefitinib 40 μM, FIG. 28): clearly reduced
mRNA expression levels of DDIT3, ATF3 and ATF4, IL-26 with gefitinib [3, 8]: significantly decreased
mRNA expression levels of IL-6, IL-8 and CXCL2, IL-26 with gefitinib [3, 8]: significantly reduced
colocalization of exogenous IL-26 with cell surface EphA3 ([6]; HCC70, FIG. 21): colocalized with the cell surface EphA3 of HCC70
effect of exogenous IL-26 on suppression of cell proliferation by gefitinib (MDA-MB468 cells; MDA-MB468, 48 hours): inhibited
effect of exogenous IL-26 on inhibitory effect of erlotinib (MDA-MB468 cells; MDA-MB-468, IL-26 30 ng/ml, erlotinib 30 μM or 50 μM, 48 hours, MTT): inhibited the inhibitory effect of erlotinib on cell proliferation
effect of exogenous IL-26 on inhibitory effect of erlotinib (E0771 cells; E0771, IL-26 30 ng/ml, erlotinib 30 μM or 50 μM, 48 hours, MTT): inhibited the inhibitory effect of erlotinib on cell proliferation
effect of exogenous IL-26 on gefitinib-induced suppression of cell proliferation (E0771 cells; E0771, IL-26 with gefitinib, 48 hours): significantly inhibited the cell proliferation suppression induced by gefitinib; also recorded: significantly suppressed in a dose-dependent manner
cell proliferation, IL-26 treatment alone (E0771 cells; E0771, no gefitinib): did not affect cell proliferation
effect of exogenous IL-26 on inhibitory effect of erlotinib (HCC70 cells [4]; HCC70, IL-26 30 ng/ml, erlotinib 30 μM or 50 μM, 48 hours, MTT): inhibited the inhibitory effect of erlotinib on cell proliferation
effect of exogenous IL-26 on gefitinib-induced suppression of cell proliferation (HCC70 cells [4]; HCC70, IL-26 with gefitinib, 48 hours): significantly inhibited the cell proliferation suppression induced by gefitinib
effect of exogenous IL-26 on suppression of cell proliferation by gefitinib (T47D cells): inhibited
mitochondrial activity, IL-26 with gefitinib (HCC70 cells [5]; HCC70, IL-26 30 ng/ml, gefitinib 40 μM): significantly inhibited the reduction in mitochondrial activity

— patent US20230398116A1, “Agent for reversing resistance to anticancer drugs” (Y'S AC CO., LTD., priority 2020, published 2023)
